Drawing on article PMC11293385 (Genes & Development, 2024), this text covers binding result and Kd for five molecules.

T1: p50(1–376) homodimer (murine, UniProt P25799 1-376)
T1 sequence (looked up): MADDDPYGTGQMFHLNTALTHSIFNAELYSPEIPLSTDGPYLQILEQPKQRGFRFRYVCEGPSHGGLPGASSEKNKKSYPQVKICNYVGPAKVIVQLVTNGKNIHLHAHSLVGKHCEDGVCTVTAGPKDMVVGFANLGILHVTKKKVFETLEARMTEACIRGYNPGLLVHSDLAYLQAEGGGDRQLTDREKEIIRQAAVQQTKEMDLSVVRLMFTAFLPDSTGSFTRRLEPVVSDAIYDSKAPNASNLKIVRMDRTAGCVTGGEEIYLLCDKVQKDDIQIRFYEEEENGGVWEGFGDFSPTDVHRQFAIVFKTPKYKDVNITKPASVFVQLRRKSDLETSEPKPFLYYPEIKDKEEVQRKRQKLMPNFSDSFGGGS

T2: p50(1–435) homodimer (murine, UniProt P25799 1-435)
T2 sequence (looked up): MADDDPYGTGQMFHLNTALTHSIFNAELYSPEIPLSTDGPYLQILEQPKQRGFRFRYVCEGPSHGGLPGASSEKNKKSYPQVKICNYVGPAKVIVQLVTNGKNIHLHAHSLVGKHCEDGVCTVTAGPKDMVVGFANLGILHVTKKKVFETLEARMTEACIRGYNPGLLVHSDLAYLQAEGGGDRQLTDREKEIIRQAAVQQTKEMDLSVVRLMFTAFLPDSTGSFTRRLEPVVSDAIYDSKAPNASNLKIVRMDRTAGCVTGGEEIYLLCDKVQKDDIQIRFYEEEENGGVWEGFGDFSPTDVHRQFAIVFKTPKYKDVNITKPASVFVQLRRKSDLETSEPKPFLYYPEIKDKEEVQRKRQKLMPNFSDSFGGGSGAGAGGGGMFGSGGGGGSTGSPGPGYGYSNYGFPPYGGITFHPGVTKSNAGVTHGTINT

T3: p50(39–363) homodimer (murine, UniProt P25799 39-363)
T3 sequence (looked up): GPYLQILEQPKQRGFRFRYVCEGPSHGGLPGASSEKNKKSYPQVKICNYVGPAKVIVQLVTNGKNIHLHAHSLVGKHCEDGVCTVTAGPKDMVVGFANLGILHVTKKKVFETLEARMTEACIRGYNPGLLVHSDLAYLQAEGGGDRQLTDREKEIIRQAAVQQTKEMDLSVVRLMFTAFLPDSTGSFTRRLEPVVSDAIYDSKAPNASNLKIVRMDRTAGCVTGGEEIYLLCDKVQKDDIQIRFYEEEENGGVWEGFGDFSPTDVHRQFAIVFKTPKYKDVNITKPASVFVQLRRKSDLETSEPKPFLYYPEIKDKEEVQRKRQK

B1: GST-IκBζ(404–718) (domain or fragment, human, UniProt Q9BYH8 404-718, looked up)
chain: MGNPMNTTQLGKSLFQWQVEQEESKLANISQDQFLSKDADGDTFLHIAVAQGRRALSYVLARKMNALHMLDIKEHNGQSAFQVAVAANQHLIVQDLVNIGAQVNTTDCWGRTPLHVCAEKGHSQVLQAIQKGAVGSNQFVDLEATNYDGLTPLHCAVIAHNAVVHELQRNQQPHSPEVQELLLKNKSLVDTIKCLIQMGAAVEAKDRKSGRTALHLAAEEANLELIRLFLELPSCLSFVNAKAYNGNTALHVAASLQYRLTQLDAVRLLMRKGADPSTRNLENEQPVHLVPDGPVGEQIRRILKGKSIQQRAPPY
B2: His-tagged IκBζ(404–718) (domain or fragment, human, UniProt Q9BYH8 404-718, looked up)
chain: B1 chain
B3: murine p50 dimerization domain homodimer (residues 245–376) (domain or fragment, UniProt P25799 245-376, looked up)
chain: ASNLKIVRMDRTAGCVTGGEEIYLLCDKVQKDDIQIRFYEEEENGGVWEGFGDFSPTDVHRQFAIVFKTPKYKDVNITKPASVFVQLRRKSDLETSEPKPFLYYPEIKDKEEVQRKRQKLMPNFSDSFGGGS
B4: human IL-6 kB DNA probe (dsDNA)
DNA 1: AGATTTATCAAATGTGGGATTTTCCCATGAGTCTCAATATT
DNA 2: AATATTGAGACTCATGGGAAAATCCCACATTTGATAAATCT
B5: RelA(191–290)–p50(350–376) chimeric fusion protein (other, murine, UniProt Q04207 191-290, looked up)
chain: TAELKICRVNRNSGSCLGGDEIFLLCDKVQKEDIEVYFTGPGWEARGSFSQADVHRQVAIVFRTPPYADPSLQAPVRVSMQLRRPSDRELSEPMEFQYLPEIKDKEEVQRKRQKLMPNFSDSFGGGS

Series [1] concerns the target T1, p50(1–376) homodimer. Nature of the series: native gel or EMSA. A general note: Mobility shift assays separate free from complexed probe on a gel.
Series [2] deals with p50(1–376):RelA(1–325) heterodimer (murine, UniProt P25799 1-376; Q04207 1-325). Nature of the series: native gel or EMSA.
Sequence of p50(1–376):RelA(1–325) heterodimer (Q04207 1-325, one chain of several): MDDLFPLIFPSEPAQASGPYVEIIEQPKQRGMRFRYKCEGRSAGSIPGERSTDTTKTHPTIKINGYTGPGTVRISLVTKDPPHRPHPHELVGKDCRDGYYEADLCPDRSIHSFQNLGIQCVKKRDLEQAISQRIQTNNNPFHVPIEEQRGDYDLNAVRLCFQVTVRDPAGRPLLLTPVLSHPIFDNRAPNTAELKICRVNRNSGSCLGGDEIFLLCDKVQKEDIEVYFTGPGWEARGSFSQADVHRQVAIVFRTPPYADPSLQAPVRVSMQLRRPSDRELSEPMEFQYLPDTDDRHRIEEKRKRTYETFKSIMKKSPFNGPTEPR
Series [3] deals with T2, p50(1–435) homodimer. Nature of the series: SPR.
For series [4], the target named is T3, p50(39–363) homodimer. The series is described as follows: SPR. On the technique in general: Surface plasmon resonance follows binding to a sensor surface in real time, without labels.
Series [5] deals with the molecule itself. The series is described as follows: crystal structure.
Series [6] addresses B2. Nature of the series: SPR.
Series [7] has as its target NF-kB p50;GST-IkBzeta ankyrin repeat domain (Mus musculus;Homo sapiens, UniProt P25799;Q9BYH8 1-376;404-718, |). Nature of the series: EMSA supershift.

As for B1, the binding result in series [1] and in series [2] was “binds” each time. For the molecule B2, the binding result in series [3] and in series [4] was “binds” in each case. B3: the binding result in series [5] is given as “binds”. Moreover, in series [6], binding was put at a Kd of 91.2 pM. B4: the binding result in series [7] was “binds”. In the case of B5, the Kd (commonly the free concentration of one partner at which half of the binding sites on the other are occupied at equilibrium, for simple one-to-one binding) in series [6] turned out to be 615 pM.
